According to publication PMC8921914:

Legend:
FcγRI = FcγRI (UniProt P12314); assay: SPR
FcRn = FcRn (UniProt P55899); assay: SPR
Chain of UniProt P55899 (P55899 whole entry, looked up, tested part not stated): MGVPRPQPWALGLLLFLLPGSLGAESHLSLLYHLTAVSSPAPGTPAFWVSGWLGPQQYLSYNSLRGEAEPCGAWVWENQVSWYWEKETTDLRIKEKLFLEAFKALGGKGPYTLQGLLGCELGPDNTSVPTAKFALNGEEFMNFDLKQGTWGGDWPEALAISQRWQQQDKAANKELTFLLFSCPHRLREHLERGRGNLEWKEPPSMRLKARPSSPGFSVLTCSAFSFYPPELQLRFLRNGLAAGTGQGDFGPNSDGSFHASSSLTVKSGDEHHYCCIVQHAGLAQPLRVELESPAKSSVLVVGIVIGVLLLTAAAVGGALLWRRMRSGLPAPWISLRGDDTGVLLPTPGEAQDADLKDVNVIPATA

Chain of UniProt P12314 (P12314 16-374): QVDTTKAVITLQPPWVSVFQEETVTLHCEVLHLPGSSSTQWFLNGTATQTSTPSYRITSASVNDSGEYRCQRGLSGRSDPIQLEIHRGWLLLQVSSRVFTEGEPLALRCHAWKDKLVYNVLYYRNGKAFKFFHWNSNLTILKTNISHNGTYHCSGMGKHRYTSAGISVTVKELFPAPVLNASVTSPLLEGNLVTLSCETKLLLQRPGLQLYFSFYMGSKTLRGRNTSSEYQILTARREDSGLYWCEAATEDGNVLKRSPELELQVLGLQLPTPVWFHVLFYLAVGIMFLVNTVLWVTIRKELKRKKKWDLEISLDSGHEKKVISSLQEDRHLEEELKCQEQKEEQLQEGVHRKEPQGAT

Kd (FcγRI): > 1000 µM
Kd (FcRn): > 1000 µM
Substance: CLN-049 (bispecific antibody)
